# From the supplement of paper PMC9112550, “Optimization of the antimicrobial peptide Bac7 by deep mutational scanning” (BMC Biology, 2022)
# Test system: Escherichia coli TOP10
# Test: shrunken log2 fold change of peptide-encoding DNA abundance (4.5 h post-induction vs induction); higher = less antimicrobial activity (less host growth inhibition)
# Conditions: time post-induction: 4.5 h; library: site-saturation at positions 5, 18, 19, 20
# 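Also: peptides expressed intracellularly from a pBAD plasmid library in pooled LB shake-flask culture, induced with 0.3% L-arabinose, DNA abundance read by NGS, three biological replicates, DESeq2 with apeglm shrinkage.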
row,Sequence,shrunken log2 fold change
1,RRIRSRPPRLPRPRPRPYALPRP,-0.613
2,RRIRGRPPRLPRPRPRPEVAPRP,1.88
3,RRIRMRPPRLPRPRPRPREYPRP,0.314
4,RRIRRRPPRLPRPRPRPVPWPRP,0.573
5,RRIRKRPPRLPRPRPRPFFSPRP,-0.0214
6,RRIRNRPPRLPRPRPRPPHYPRP,-0.245
7,RRIRTRPPRLPRPRPRPDTWPRP,0.0221
8,RRIRQRPPRLPRPRPRPTYIPRP,-0.0622
9,RRIRHRPPRLPRPRPRPPFCPRP,0.00537
10,RRIRCRPPRLPRPRPRPEQNPRP,0.268
11,RRIRGRPPRLPRPRPRPNYWPRP,-0.115
12,RRIRHRPPRLPRPRPRPSIPPRP,-0.868
13,RRIRVRPPRLPRPRPRPHITPRP,-0.643
14,RRIRCRPPRLPRPRPRPWEGPRP,-0.00146
15,RRIRARPPRLPRPRPRPCKVPRP,-0.164
16,RRIRNRPPRLPRPRPRPAIYPRP,-0.425
17,RRIRVRPPRLPRPRPRPILAPRP,-0.224
18,RRIRMRPPRLPRPRPRPPPFPRP,1.15
19,RRIRQRPPRLPRPRPRPVSNPRP,-0.0478
20,RRIRARPPRLPRPRPRPPCLPRP,0.224
21,RRIRNRPPRLPRPRPRPRRMPRP,0.207
22,RRIRWRPPRLPRPRPRPHQHPRP,-0.214
23,RRIRARPPRLPRPRPRPFMVPRP,-0.235
24,RRIRQRPPRLPRPRPRPIQCPRP,0.0238
25,RRIRCRPPRLPRPRPRPTCVPRP,-0.0603

row,Sequence,shrunken log2 fold change
1,RRIRNRPPRLPRPRPRPTMKPRP,-0.368
2,RRIRTRPPRLPRPRPRPKLQPRP,-0.114
3,RRIRGRPPRLPRPRPRPPNFPRP,0.0696
4,RRIRSRPPRLPRPRPRPETEPRP,0.997
5,RRIRVRPPRLPRPRPRPQDQPRP,0.225
6,RRIRMRPPRLPRPRPRPKYYPRP,-0.0662
7,RRIRARPPRLPRPRPRPVEPPRP,0.297
8,RRIRSRPPRLPRPRPRPISLPRP,1.99
9,RRIRTRPPRLPRPRPRPLCSPRP,-0.27
10,RRIRQRPPRLPRPRPRPQFVPRP,-0.173
11,RRIRYRPPRLPRPRPRPPKPPRP,0.144
12,RRIRGRPPRLPRPRPRPVIRPRP,0.177
13,RRIRPRPPRLPRPRPRPFCMPRP,-0.047
14,RRIRSRPPRLPRPRPRPDRHPRP,-0.0205
15,RRIRLRPPRLPRPRPRPRYQPRP,-0.0283
16,RRIRSRPPRLPRPRPRPIPFPRP,-0.518
17,RRIRTRPPRLPRPRPRPKGWPRP,0.414
18,RRIRYRPPRLPRPRPRPAMQPRP,-0.0244
19,RRIRSRPPRLPRPRPRPNCMPRP,-0.0954
20,RRIRRRPPRLPRPRPRPAPEPRP,2.07
21,RRIRWRPPRLPRPRPRPNYLPRP,-1
22,RRIRMRPPRLPRPRPRPYIEPRP,-0.201
23,RRIRLRPPRLPRPRPRPCIWPRP,-0.21
24,RRIRARPPRLPRPRPRPWPFPRP,-0.0236
25,RRIRTRPPRLPRPRPRPFENPRP,-0.0132

row,Sequence,shrunken log2 fold change
1,RRIRNRPPRLPRPRPRPVLLPRP,-0.0738
2,RRIRTRPPRLPRPRPRPIVTPRP,1.13
3,RRIRMRPPRLPRPRPRPPNCPRP,0.0335
4,RRIRERPPRLPRPRPRPCAMPRP,-0.0091
5,RRIRDRPPRLPRPRPRPSIGPRP,0.154
6,RRIRHRPPRLPRPRPRPKFQPRP,-0.0213
7,RRIRARPPRLPRPRPRPDDPPRP,0.632
8,RRIRMRPPRLPRPRPRPTADPRP,2.84
9,RRIRNRPPRLPRPRPRPCQKPRP,0.00489
10,RRIRPRPPRLPRPRPRPNPDPRP,0.0105
11,RRIRNRPPRLPRPRPRPAIDPRP,-0.0478
12,RRIRNRPPRLPRPRPRPEDNPRP,0.0315
13,RRIRQRPPRLPRPRPRPDDPPRP,-0.0062
14,RRIRARPPRLPRPRPRPHWWPRP,0.5
15,RRIRHRPPRLPRPRPRPPFPPRP,0.0224
16,RRIRFRPPRLPRPRPRPRAAPRP,0.408
17,RRIRTRPPRLPRPRPRPLDQPRP,0.365
18,RRIRWRPPRLPRPRPRPTGYPRP,-0.145
19,RRIRDRPPRLPRPRPRPCRKPRP,-0.00804
20,RRIRSRPPRLPRPRPRPCECPRP,-0.0304
21,RRIRVRPPRLPRPRPRPVFMPRP,-0.113
22,RRIRYRPPRLPRPRPRPFWWPRP,-0.102
23,RRIRIRPPRLPRPRPRPTPIPRP,0.153
24,RRIRQRPPRLPRPRPRPQAAPRP,0.0499
25,RRIRQRPPRLPRPRPRPQSTPRP,-0.631

row,Sequence,shrunken log2 fold change
1,RRIRHRPPRLPRPRPRPGQYPRP,-0.0767
2,RRIRPRPPRLPRPRPRPQHQPRP,-0.226
3,RRIRGRPPRLPRPRPRPLESPRP,1.12
4,RRIRARPPRLPRPRPRPSFMPRP,0.0496
5,RRIRKRPPRLPRPRPRPFAWPRP,0.462
6,RRIRWRPPRLPRPRPRPTEKPRP,0.103
7,RRIRYRPPRLPRPRPRPYVYPRP,-0.26
8,RRIRSRPPRLPRPRPRPVVIPRP,-0.429
9,RRIRRRPPRLPRPRPRPGGTPRP,0.245
10,RRIRRRPPRLPRPRPRPMWVPRP,-0.135
11,RRIRPRPPRLPRPRPRPINKPRP,-0.641
12,RRIRERPPRLPRPRPRPCAPPRP,-0.215
13,RRIRCRPPRLPRPRPRPVIAPRP,-0.2
14,RRIRDRPPRLPRPRPRPQSFPRP,-0.0337
15,RRIRKRPPRLPRPRPRPAVQPRP,0.195
16,RRIRARPPRLPRPRPRPVPGPRP,0.672
17,RRIRQRPPRLPRPRPRPYWSPRP,-0.117
18,RRIRFRPPRLPRPRPRPQWGPRP,-0.139
19,RRIRKRPPRLPRPRPRPGNGPRP,0.351
20,RRIRQRPPRLPRPRPRPRGHPRP,0.342
21,RRIRNRPPRLPRPRPRPVTPPRP,0.0444
22,RRIRNRPPRLPRPRPRPGNMPRP,-1.16
23,RRIRVRPPRLPRPRPRPFTTPRP,-0.211
24,RRIRFRPPRLPRPRPRPMNKPRP,-0.65
25,RRIRMRPPRLPRPRPRPQRQPRP,0.0595

row,Sequence,shrunken log2 fold change
1,RRIRARPPRLPRPRPRPQHIPRP,-0.0675
2,RRIRGRPPRLPRPRPRPHADPRP,1.68
3,RRIRHRPPRLPRPRPRPYIPPRP,-0.194
4,RRIRKRPPRLPRPRPRPETCPRP,0.0906
5,RRIRFRPPRLPRPRPRPFDSPRP,-0.22
6,RRIRGRPPRLPRPRPRPYQPPRP,-0.257
7,RRIRSRPPRLPRPRPRPKACPRP,-0.253
8,RRIRWRPPRLPRPRPRPYQLPRP,-0.26
9,RRIRIRPPRLPRPRPRPNPPPRP,0.125
10,RRIRPRPPRLPRPRPRPMNWPRP,-0.0482
11,RRIRNRPPRLPRPRPRPVKYPRP,-0.288
12,RRIRNRPPRLPRPRPRPVADPRP,0.217
13,RRIRTRPPRLPRPRPRPKRFPRP,-0.00233
14,RRIRERPPRLPRPRPRPRHPPRP,-0.289
15,RRIRWRPPRLPRPRPRPKKSPRP,0.395
16,RRIRDRPPRLPRPRPRPICVPRP,-0.109
17,RRIRLRPPRLPRPRPRPGDFPRP,0.017
18,RRIRQRPPRLPRPRPRPTEKPRP,-0.047
19,RRIRFRPPRLPRPRPRPQGHPRP,0.0395
20,RRIRFRPPRLPRPRPRPLGWPRP,0.494
21,RRIRYRPPRLPRPRPRPLKYPRP,-0.352
22,RRIRQRPPRLPRPRPRPHDSPRP,-0.0135
23,RRIRNRPPRLPRPRPRPYVLPRP,0.0201
24,RRIRDRPPRLPRPRPRPKTLPRP,-0.21
25,RRIRKRPPRLPRPRPRPNSIPRP,-0.0805
